Laboratory results: patent publication US20240376195A1 (BEIGENE, published 2024)

How the values were obtained:
[1] = molecular target: T1, full-length human NKp30 on NK92MI cells (human, UniProt O14931 19-201); test: flow cytometry on live NK92MI cells over-expressing human NKp30, goat anti-human IgG detection
T1 construct: Full-length human NKp30 over-expressed on NK92MI cells; also called huNKp30; native NKp30
T1 sequence: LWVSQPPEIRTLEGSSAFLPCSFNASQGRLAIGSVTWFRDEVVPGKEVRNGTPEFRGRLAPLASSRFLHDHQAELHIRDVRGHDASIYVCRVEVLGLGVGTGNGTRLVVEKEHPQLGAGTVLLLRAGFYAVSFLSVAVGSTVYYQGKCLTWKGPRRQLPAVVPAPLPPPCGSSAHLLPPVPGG
Description: To evaluate the binding activity of anti-NKp30 antibodies to native NKp30 on living cells, NK92MI cells were transfected to over-express human NKp30. Live NK92mi/NKp30 expressing cells were seeded in 96-well plates and were incubated with a serial dilution of anti-NKp30 antibodies. Goat anti-Human IgG was used as secondary antibody to detect antibody binding to the cell surface. EC₅₀ values for dose-dependent binding to human native NKp30 were determined by fitting the dose-response data to the four-parameter logistic model with GraphPad Prism™.

W20A = molecular target: T2, W20A; test: ELISA; 50 ng Nkp30-Fc variant coated, antibody at 20 nM, HRP-linked secondary antibody; signal relative to wild type
T2 construct: single alanine mutant; also called mutant Nkp30-Fc W20A
T2 Fc fusion chain: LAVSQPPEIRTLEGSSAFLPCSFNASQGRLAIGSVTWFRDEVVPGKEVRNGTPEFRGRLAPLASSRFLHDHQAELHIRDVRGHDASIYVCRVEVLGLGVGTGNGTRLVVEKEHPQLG
Description: (§1) To characterize the binding epitope of BGA1833, 10 amino acid residues of NKp30 were mutated to alanine individually to generate 10 single-mutation NKp30 variants based upon the information from the crystal structure of NKp30 reported previously (Li et al., J Exp Med. 2011 208:703-714). The mutant NKp30 proteins along with the wild-type NKp30 protein were analyzed for their recognition and binding by BGA1833. Another humanized anti-NKp30 antibody, BGA1913, was also analyzed in the same ELISA assay for comparison. In this assay, 50 ng each of wild-type or mutant Nkp30-Fc was coated in an ELISA plate. After blocking, 100 μl of BGA1833 or BGA1913 antibody at a concentration of 20 nM was added to the plate and the binding signal of each antibody was detected by HRP-linked secondary antibody. All ELISA results were normalized using the mean values of the ELISA reading of wild type NKp30-Fc binding signal as the standard. To simplify data analysis, if an antibody's ELISA binding signal for a specific mutant NKp30 dropped to or below 25%, then the amino acid at that site was considered critical to the epitope.

S52A = molecular target: T3, S52A; test: as above
T3 construct: single alanine mutant; also called mutant Nkp30-Fc S52A
T3 Fc fusion chain: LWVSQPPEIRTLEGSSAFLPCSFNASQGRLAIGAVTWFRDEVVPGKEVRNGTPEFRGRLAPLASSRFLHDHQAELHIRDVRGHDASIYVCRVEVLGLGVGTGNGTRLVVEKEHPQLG
Description: as §1

E111A = molecular target: T4, E111A; test: as above
T4 construct: single alanine mutant; also called mutant Nkp30-Fc E111A
T4 Fc fusion chain: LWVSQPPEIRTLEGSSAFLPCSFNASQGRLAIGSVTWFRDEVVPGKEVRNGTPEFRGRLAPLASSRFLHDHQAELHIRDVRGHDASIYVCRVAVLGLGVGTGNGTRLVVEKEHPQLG
Description: as §1

T119A = molecular target: T5, T119A; test: as above
T5 construct: single alanine mutant; also called mutant Nkp30-Fc T119A
T5 Fc fusion chain: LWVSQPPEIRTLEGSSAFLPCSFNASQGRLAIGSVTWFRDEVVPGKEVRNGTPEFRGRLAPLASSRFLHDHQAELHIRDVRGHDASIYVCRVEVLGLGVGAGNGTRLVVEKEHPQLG
Description: as §1

R109A = molecular target: T6, R109A; test: as above
T6 construct: single alanine mutant; also called mutant Nkp30-Fc R109A
T6 Fc fusion chain: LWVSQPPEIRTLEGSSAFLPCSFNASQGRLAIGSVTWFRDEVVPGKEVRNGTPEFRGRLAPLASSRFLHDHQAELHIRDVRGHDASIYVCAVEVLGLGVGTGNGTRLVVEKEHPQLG
Description: as §1

E65A = molecular target: T7, E65A; test: as above
T7 construct: single alanine mutant; also called mutant Nkp30-Fc E65A
T7 Fc fusion chain: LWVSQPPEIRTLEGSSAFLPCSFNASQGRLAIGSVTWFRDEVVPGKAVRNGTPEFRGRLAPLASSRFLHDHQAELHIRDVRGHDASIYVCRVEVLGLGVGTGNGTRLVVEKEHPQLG
Description: as §1

K129A = molecular target: T8, K129A; test: as above
T8 construct: single alanine mutant; also called mutant Nkp30-Fc K129A
T8 Fc fusion chain: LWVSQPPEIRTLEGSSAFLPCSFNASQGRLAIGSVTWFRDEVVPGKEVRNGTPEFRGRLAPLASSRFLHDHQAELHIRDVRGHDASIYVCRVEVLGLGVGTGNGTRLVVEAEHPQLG
Description: as §1

V117A = molecular target: T9, V117A; test: as above
T9 construct: single alanine mutant; also called mutant Nkp30-Fc V117A
T9 Fc fusion chain: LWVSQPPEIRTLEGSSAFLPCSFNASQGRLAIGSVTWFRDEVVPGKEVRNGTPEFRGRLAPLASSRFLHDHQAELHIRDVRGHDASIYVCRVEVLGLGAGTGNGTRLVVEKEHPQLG
Description: as §1

his-tagged human NKp30 [2] = molecular target: T10, his-tagged human NKp30 (human, UniProt O14931 19-135); test: SPR, antibody captured on anti-human Fc surface
T10 construct: Analyte of the SPR assay; not shown: his tag
T10 sequence: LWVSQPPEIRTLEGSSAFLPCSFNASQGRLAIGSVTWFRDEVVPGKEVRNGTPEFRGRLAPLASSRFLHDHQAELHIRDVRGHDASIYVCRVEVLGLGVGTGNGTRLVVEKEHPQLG
From the text: (§2) Further engineered versions of humanized monoclonal antibodies were derived from the mutation process described as above and characterized in detail. […] For affinity determination, antibodies were captured by anti-human Fc surface, and used in the affinity assay based on surface plasmon resonance (SPR) technology. All the humanization antibodies shown above were also confirmed for functional activities on primary human immune cells isolated from healthy donors (described in Example 7 below).

his-tagged human NKp30 [3] = molecular target: T10, his-tagged human NKp30; test: SPR, antibody captured on anti-human Fc surface; NKp30 analyte not named in Example 4
From the text: as §2

B1: BGA1833 (antibody, human IgG1, kappa)
heavy: QVQLVQSGAEVKKPGASVKVSCKASGYTFTSSYMHWVRQAPGQGLEWMGEIHPNRDNTNYNEKFKGRVTMTRDTSTSTVYMELSSLRSEDTAVYYCARSYYEYGGAYFDAWGQGTLVTVSSASTKGPSVFPLAPSSKSTSGGTAALGCLVKDYFPEPVTVSWNSGALTSGVHTFPAVLQSSGLYSLSSVVTVPSSSLGTQTYICNVNHKPSNTKVDKKVEPKSCDKTHTCPPCPAPPAAGPSVFLFPPKPKDTLMISRTPEVTCVVVDVSHEDPEVKFNWYVDGVEVHNAKTKPREEQYNSTYRVVSVLTVLHQDWLNGKEYKCKVSNKALAAPIEKTISKAKGQPREPQVYTLPPSRDELTKNQVSLTCLVKGFYPSDIAVEWESNGQPENNYKTTPPVLDSDGSFFLYSKLTVDKSRWQQGNVFSCSVMHEALHNHYTQKSLSLSPGK
light: QIQLTQSPSSLSASVGDRVTITCKASQDVSTAVAWYQQKPGKAPKLLIYAASYRHIGVPSRFSGSGSGTDFTLTISSLQPEDFATYYCQQHYSNPFTFGGGTKVEIKRTVAAPSVFIFPPSDEQLKSGTASVVCLLNNFYPREAKVQWKVDNALQSGNSQESVTEQDSKDSTYSLSSTLTLSKADYEKHKVYACEVTHQGLSSPVTKSFNRGEC
notes: also called BGA1833 (IgG1mf format)
With B1 the EC50 [1] was 1.31 nM, the binding result (W20A) was “binds” and the binding result (S52A) was “binds”. B1: binds (E111A); binds (T119A); binds (R109A). B1: binds (E65A); binds (K129A); binds (V117A). For the same binder, the “fold lower affinity than the initial antibody” value (his-tagged human NKp30 [2]) was ~10 fold, the Kd (his-tagged human NKp30 [3]) was 1.92 nM and the koff (his-tagged human NKp30 [3]) was 0.00278 s⁻¹. For the same binder, the kon (his-tagged human NKp30 [3]) was 1.45e+06 M⁻¹ s⁻¹.
